The nature of the series: self-splicing fitness, log relative to wild type (ln ratio); higher = more splicing; Tetrahymena group I intron in knt gene, E. coli kanamycin selection, DiMSum; sequences stand for … in CUCUCU…GGAGGGAAAAGUUAUCAGGCAUGCACCUGGUAGCUAGUCUUUAAACCAAUAGAUUGCAUCGGUUUAAAAGGCAAGACCGUCAAAUUGCGGGAAAGGGGUCAACAGCCGUUCAGUACCAAGUCUCAGGGGAAACUUUGAGAUGGCCUUGCAAAGGGUAUGGUAAUAAGCUGACGGACAUGGUCCUAACCACGCAGCCAAGUCCUAAGUCAACAGAUCUUCUGUUGAUAUGGAUGCAGUUCACAGACUAAAUGUCGGUCGGGGAAGAUGUAUUCUUCUCAUAAGAUAUAGUCGGACCUCUCCUUAAUGGGAGCUAGCGGAUGAAGUGAUGCAACACUGGAGCCGCUGGGAACUAAUUUGUAUGCGAAAGUAUAUUGAUUAGUUUUGGAGUACUCGUGGUCG
An outline of the steps: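 DiMSum derived fitness as the error-weighted combination of fold changes across replicates, kanamycin versus no kanamycin, normalised to wild type. E. coli BL21(DE3) held the library, which randomised all eight P1ex-region intron nucleotides within the knt kanamycin-resistance gene on pET-22b(+). Six replicate transformations grew overnight at 37°C or 30°C on LB agar with or without 25 μg/mL kanamycin, also containing 100 μg/mL carbenicillin, 50 μM IPTG and 0.2% rhamnose, and pooled colonies were amplicon-sequenced on an Illumina HiSeq 2500.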

The record followed here is the supplement of paper PMC7877785.

± gives the uncertainty stated by the source.

Turning to UAAAAGCAAUAUUACGGCUC, the “self-splicing fitness (ln)” value (30 °C) is -1.05 ± 0.12 and the “self-splicing fitness (ln)” value (37 °C) was 0.168 ± 0.17. For AUAGAGCAAUAUUACGAAUA, the “self-splicing fitness (ln)” value is -4.03 ± 0.47 (30 °C) and -2.1 ± 0.29 (37 °C). For the sequence GAGAAGCAAUAUUACGCGAG, the “self-splicing fitness (ln)” value is -1.75 ± 0.086 (30 °C) and -0.918 ± 0.078 (37 °C). UACAAGCAAUAUUACGGGUA: the “self-splicing fitness (ln)” value (30 °C) is -1.13 ± 0.072 and the “self-splicing fitness (ln)” value (37 °C) was -0.839 ± 0.077. The matching figures for AGACAGCAAUAUUACGUCCA: -0.173 ± 0.092 and -0.591 ± 0.14. As for CCCUAGCAAUAUUACGCAAU, the “self-splicing fitness (ln)” value was -3.56 ± 0.23 (30 °C) and -2.02 ± 0.27 (37 °C). CUUCAGCAAUAUUACGUGUG: the “self-splicing fitness (ln)” value was -1.1 ± 0.061 (30 °C) and -0.859 ± 0.076 (37 °C). For the sequence GGAGAGCAAUAUUACGAGCC, the “self-splicing fitness (ln)” value (30 °C) was -2.64 ± 0.49. In the case of GGGAAGCAAUAUUACGAGUG, the “self-splicing fitness (ln)” value runs as follows: (30 °C) -3.06 ± 0.12; (37 °C) -1.81 ± 0.11.

GCAAAGCAAUAUUACGCAAU: the “self-splicing fitness (ln)” value reads like this: (30 °C) -3.41 ± 0.13; (37 °C) -1 ± 0.092. On to UCAGAGCAAUAUUACGGGAC, for which the “self-splicing fitness (ln)” value is, setting by setting: (30 °C) -3.74 ± 0.29; (37 °C) -1.6 ± 0.33. The matching figures for CUUGAGCAAUAUUACGGUAU: -3.17 ± 0.2 and -2.65 ± 0.26. For the sequence CAGCAGCAAUAUUACGAGCC, where the note is “37 °C”, the “self-splicing fitness (ln)” value was -1.48 ± 0.23. Turning to GGAUAGCAAUAUUACGAGCG, the “self-splicing fitness (ln)” value was -0.76 ± 0.1 (30 °C) and -0.0359 ± 0.088 (37 °C). Turning to UCACAGCAAUAUUACGUGAC, the “self-splicing fitness (ln)” value was -3.26 ± 0.12 (30 °C) and -2.5 ± 0.22 (37 °C). In the case of CUCGAGCAAUAUUACGAGCC, the “self-splicing fitness (ln)” value (37 °C) is -1.68 ± 0.2.

CCAGAGCAAUAUUACGGCUA: the “self-splicing fitness (ln)” value (30 °C) is -2.84 ± 0.2 and the “self-splicing fitness (ln)” value (37 °C) is -2.94 ± 0.4. In the case of UAUUAGCAAUAUUACGAACC, where the note is “30 °C”, the “self-splicing fitness (ln)” value was -0.688 ± 0.36.

As for UGAGAGCAAUAUUACGUAUC, the “self-splicing fitness (ln)” value was -0.611 ± 0.42 (30 °C) and -0.408 ± 0.47 (37 °C). The like results for CCAGAGCAAUAUUACGUGGG were, in that order, -3.73 ± 0.27 and -2.29 ± 0.18. As for AUUAAGCAAUAUUACGUACA, the “self-splicing fitness (ln)” value (30 °C) was -1.2 ± 0.1 and the “self-splicing fitness (ln)” value (37 °C) is -0.1 ± 0.13.

For UGGUAGCAAUAUUACGACAU, the “self-splicing fitness (ln)” value was -1.39 ± 0.015 (30 °C) and -0.583 ± 0.034 (37 °C). The matching figures for CUGCAGCAAUAUUACGCGGA: -2.29 ± 0.21 and -2.21 ± 0.31. The matching figures for UUCCAGCAAUAUUACGCAAA: -1.42 ± 0.12 and -0.0764 ± 0.13.

For the sequence CCCUAGCAAUAUUACGGAAG, the “self-splicing fitness (ln)” value is -4.09 ± 0.22 (30 °C) and -2.02 ± 0.19 (37 °C). The matching figures for CGACAGCAAUAUUACGCCAA: -2.18 ± 0.28 and -3.28 ± 0.37. The matching figures for AAUUAGCAAUAUUACGAUCC: -0.705 ± 0.18 and -0.148 ± 0.26. The matching figures for UAGCAGCAAUAUUACGCUAG: -2.94 ± 0.12 and -1.96 ± 0.17. On to CAGCAGCAAUAUUACGCCCU, for which the “self-splicing fitness (ln)” value is, setting by setting: (30 °C) -1.89 ± 0.1; (37 °C) 0.0797 ± 0.13. GCGAAGCAAUAUUACGUGAG: the “self-splicing fitness (ln)” value by setting is: (30 °C) -1.89 ± 0.091; (37 °C) -2.01 ± 0.1.

CUGAAGCAAUAUUACGGUGU: the “self-splicing fitness (ln)” value reads like this: (30 °C) -3.3 ± 0.1; (37 °C) -2.95 ± 0.12. Turning to GGAUAGCAAUAUUACGAGAG, the “self-splicing fitness (ln)” value is -1.8 ± 0.23 (30 °C) and -3.09 ± 0.47 (37 °C).

For the sequence CGGGAGCAAUAUUACGUGAG, the “self-splicing fitness (ln)” value is -1.03 ± 0.11 (30 °C) and -0.865 ± 0.11 (37 °C).

Take GAAUAGCAAUAUUACGACAA: the “self-splicing fitness (ln)” value runs as follows: (30 °C) -0.386 ± 0.13; (37 °C) -0.329 ± 0.13. The like results for CCUCAGCAAUAUUACGAUGG were, in that order, -4.2 ± 0.19 and -2.69 ± 0.16. The like results for AUGAAGCAAUAUUACGGUCA were, in that order, 0.145 ± 0.07 and 0.605 ± 0.1. As to CGACAGCAAUAUUACGAUCG, the “self-splicing fitness (ln)” value was -3.43 ± 0.2 (30 °C) and -2.11 ± 0.2 (37 °C). As to UGCCAGCAAUAUUACGGACA, the “self-splicing fitness (ln)” value runs as follows: (30 °C) -0.325 ± 0.074; (37 °C) -0.394 ± 0.09. For the sequence ACGCAGCAAUAUUACGACGG, the “self-splicing fitness (ln)” value reads like this: (30 °C) -0.871 ± 0.051; (37 °C) -0.191 ± 0.073. Turning to AAUCAGCAAUAUUACGAAAC, the “self-splicing fitness (ln)” value was -1.97 ± 0.19 (30 °C) and -0.858 ± 0.16 (37 °C). The like results for ACUUAGCAAUAUUACGUGCC were, in that order, -0.96 ± 0.13 and -1.4 ± 0.15. The matching figures for ACAAAGCAAUAUUACGAGCG: -0.894 ± 0.084 and 0.57 ± 0.096. As to AUAUAGCAAUAUUACGAGGA, where the note is “37 °C”, the “self-splicing fitness (ln)” value was -2.44 ± 0.38. As to AACUAGCAAUAUUACGGAUG, the “self-splicing fitness (ln)” value (30 °C) is -2.26 ± 0.067 and the “self-splicing fitness (ln)” value (37 °C) was -1.03 ± 0.072. On to UAAUAGCAAUAUUACGUGUG, for which the “self-splicing fitness (ln)” value is -1.6 ± 0.073 (30 °C) and -0.917 ± 0.074 (37 °C). The matching figures for UUAUAGCAAUAUUACGCUGA: -2.17 ± 0.14 and -0.624 ± 0.13. On to GUAAAGCAAUAUUACGAGUG, for which the “self-splicing fitness (ln)” value (30 °C) was -1.69 ± 0.059 and the “self-splicing fitness (ln)” value (37 °C) is -0.403 ± 0.08.

For the sequence AGCAAGCAAUAUUACGUAGC, the “self-splicing fitness (ln)” value reads like this: (30 °C) -3.34 ± 0.18; (37 °C) -2.45 ± 0.19.

In the case of AUUCAGCAAUAUUACGCGCG, the “self-splicing fitness (ln)” value (30 °C) was -0.817 ± 0.12 and the “self-splicing fitness (ln)” value (37 °C) was 0.873 ± 0.15. As for UGAGAGCAAUAUUACGUUGG, the “self-splicing fitness (ln)” value (37 °C) was -3 ± 0.27. AUCGAGCAAUAUUACGGACA: the “self-splicing fitness (ln)” value is, setting by setting: (30 °C) -1.98 ± 0.38; (37 °C) -1.41 ± 0.42. The matching figures for ACUAAGCAAUAUUACGAGAC: -2.89 ± 0.28 and -3.24 ± 0.35. Consider CGUAAGCAAUAUUACGAGAU, for which the “self-splicing fitness (ln)” value was -4.04 ± 0.47 (30 °C) and -2.55 ± 0.41 (37 °C). CACCAGCAAUAUUACGCUCA: the “self-splicing fitness (ln)” value is -1.42 ± 0.12 (30 °C) and -1.13 ± 0.17 (37 °C). UGACAGCAAUAUUACGGAUG: the “self-splicing fitness (ln)” value is, setting by setting: (30 °C) -0.91 ± 0.054; (37 °C) -0.91 ± 0.075. Take GGGCAGCAAUAUUACGGAAC: the “self-splicing fitness (ln)” value was -1.22 ± 0.1 (30 °C) and -1.75 ± 0.15 (37 °C).

GCGAAGCAAUAUUACGGUCC: the “self-splicing fitness (ln)” value by setting is: (30 °C) -3.6 ± 0.25; (37 °C) -2.27 ± 0.31. Turning to AAUGAGCAAUAUUACGAUCU, the “self-splicing fitness (ln)” value was -0.572 ± 0.074 (30 °C) and -0.195 ± 0.1 (37 °C). The matching figures for ACCCAGCAAUAUUACGGGAC: -2.71 ± 0.1 and -1.54 ± 0.1. Regarding CAGGAGCAAUAUUACGACUU, the “self-splicing fitness (ln)” value is -1.48 ± 0.19 (30 °C) and -0.618 ± 0.22 (37 °C). The like results for GACAAGCAAUAUUACGAAUC were, in that order, -2.49 ± 0.12 and -2.53 ± 0.16. As to GUGUAGCAAUAUUACGGGCU, the “self-splicing fitness (ln)” value is -2.88 ± 0.46 (30 °C) and -0.129 ± 0.14 (37 °C). Turning to GUGGAGCAAUAUUACGUAAC, the “self-splicing fitness (ln)” value is -0.784 ± 0.18 (30 °C) and -0.991 ± 0.28 (37 °C). Regarding GACAAGCAAUAUUACGAGGC, the “self-splicing fitness (ln)” value is -2.4 ± 0.16 (30 °C) and -2.76 ± 0.32 (37 °C). The matching figures for GCGUAGCAAUAUUACGAACG: -2.48 ± 0.29 and -1.79 ± 0.27. The like results for AUCAAGCAAUAUUACGACAU were, in that order, 0.105 ± 0.011 and 0.377 ± 0.032. As to AAUAAGCAAUAUUACGGCUU, the “self-splicing fitness (ln)” value is, setting by setting: (30 °C) -0.403 ± 0.12; (37 °C) -0.12 ± 0.14. UCCGAGCAAUAUUACGAGGC: the “self-splicing fitness (ln)” value is -3.1 ± 0.36 (30 °C) and -1.7 ± 0.39 (37 °C). The matching figures for AAGGAGCAAUAUUACGUAUU: -2.95 ± 0.12 and -2.34 ± 0.15. Take GAGAAGCAAUAUUACGCAGA: the “self-splicing fitness (ln)” value (30 °C) is -2.84 ± 0.17 and the “self-splicing fitness (ln)” value (37 °C) is -1.8 ± 0.19. The like results for AUCCAGCAAUAUUACGUCGC were, in that order, -3.25 ± 0.24 and -2.08 ± 0.19. The like results for GAUCAGCAAUAUUACGUAUU were, in that order, -2.69 ± 0.12 and -1.38 ± 0.12. The like results for GGGUAGCAAUAUUACGUUGG were, in that order, -3.28 ± 0.28 and -2.14 ± 0.32. For the sequence GGGCAGCAAUAUUACGAAUU, the “self-splicing fitness (ln)” value reads like this: (30 °C) -0.318 ± 0.12; (37 °C) -0.166 ± 0.17. Take AAUCAGCAAUAUUACGUUGA: the “self-splicing fitness (ln)” value by setting is: (30 °C) -0.828 ± 0.086; (37 °C) -0.22 ± 0.1. The matching figures for CUUUAGCAAUAUUACGUAUU: -3.07 ± 0.24 and -1.34 ± 0.21. The like results for CUGGAGCAAUAUUACGCAGC were, in that order, -3.72 ± 0.49 and -0.0349 ± 0.47.
